We go through 1 molecule from US20230212270A1 (UNIVERSITY OF PITTSBURGH OF THE COMMONWEALTH SYSTEM OF …, published 2023).

For test [1], the target named is T1, Human serum albumin (HSA) (human, UniProt P02768 25-609).
T1 construct: In SPR the HSA was immobilised on a CM5 chip
Put plainly: affinity as cited in the structural example (SPR).

For test [2], the target named is T1, Human serum albumin (HSA). Put plainly: SPR (Biacore 3000), HSA immobilised on CM5 chip, Nb as analyte. In general terms: Surface plasmon resonance follows binding to a sensor surface in real time, without labels.
Protocol: Nb Affinity measurement by surface plasmon resonance (SPR) Surface plasmon resonance (SPR, Biacore 3000 system, GE Healthcare) was used to measure Nb affinities. Briefly, a protein antigen such as GST, OMP25 PDZ domain or human serum albumin was immobilized to the flow channels of an activated CM5 sensor-chip. Protein analytes were diluted to 10-30 µg/ml in 10 mM sodium acetate, pH 4.5, and injected into the SPR system at 5 µl/min for 420 s. The surface was then blocked by 1 M ethanolamine-HCl (pH 8.5). For each Nb analyte, a series of dilution spanning approximately 1,000 fold was injected in duplicate, with HBS-EP+ running buffer (GE-Healthcare) containing 2 mM DTT, at a flow rate of 20- 30 µl/min for 120- 180 s, followed by a dissociation time of 5 - 20 mins based on dissociation rate. Between each injection, the sensor chip surface was regenerated with low pH buffer containing 10 mM glycine-HCl (pH 1.5- 2.5) at a flow rate of 40-50 µl/min for 30 s, or high pH buffer of 20-40 mM NaOH (pH 12- 13) at 40-50 µl/min for 30 s. Binding sensorgrams for each Nb were processed and analyzed using BIA evaluation by fitting with 1:1 Langmuir model or 1:1 Langmuir model with mass transfer.

For orientation: Kd means the free concentration of one partner at which half of the binding sites on the other are occupied at equilibrium, for simple one-to-one binding. Low values mean higher affinity, high ones lower affinity. A word on the koff: it is a measure of how fast the partners let go of each other. High values mean a short-lived complex, low ones a long-lived complex. Broadly, the kon is a measure of how fast the partners come together.

T1 sequence (P02768 25-609 limits assumed, form in doubt): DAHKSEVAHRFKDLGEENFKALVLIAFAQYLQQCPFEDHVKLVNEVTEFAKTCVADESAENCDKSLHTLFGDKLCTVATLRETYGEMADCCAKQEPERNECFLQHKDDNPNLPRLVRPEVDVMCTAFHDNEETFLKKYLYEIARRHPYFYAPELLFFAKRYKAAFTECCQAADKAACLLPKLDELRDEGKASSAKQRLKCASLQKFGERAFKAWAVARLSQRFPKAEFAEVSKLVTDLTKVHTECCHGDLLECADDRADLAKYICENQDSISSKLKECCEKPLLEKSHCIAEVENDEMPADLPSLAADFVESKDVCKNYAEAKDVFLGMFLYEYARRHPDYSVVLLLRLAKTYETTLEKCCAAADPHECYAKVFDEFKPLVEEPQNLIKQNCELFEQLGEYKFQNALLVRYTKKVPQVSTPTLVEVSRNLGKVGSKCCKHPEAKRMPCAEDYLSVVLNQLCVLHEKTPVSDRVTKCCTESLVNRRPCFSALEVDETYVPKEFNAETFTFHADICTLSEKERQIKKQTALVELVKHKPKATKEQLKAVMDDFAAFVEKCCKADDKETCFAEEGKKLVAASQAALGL

B1: Nb80 (VHH)
VHH: EVQLVESGGGLVQAGGSLRLSCTASGRTFTPYTMGWFRQAPGKEREFVASILWSGNNRDYADSVKGRFAISRDNAKNTAYLQMTSLKPEDTAVYYCAAGDGLGFYRSVNQYDYWGQGTQVTVS
notes: His-tagged nanobody from E. coli
B1 displayed a Kd in test [1] of 0.16 nM. Further, in test [2], binding was characterised by a dissociation constant (Kd) of 0.166 nM, the koff was determined as 2.75e-05 s⁻¹ and the kon turned out to be 166000 M⁻¹ s⁻¹.
